Tests used:
[1] = fluorometric AGE assay, HEK293 mitochondria, MGO 30 min; conditions: glycan lost; control: DJ1 WT
[2] = fluorometric AGE assay, HEK293 mitochondria, vehicle (PBS); conditions: glycan lost; control: DJ1 WT

B1: DJ1: T19A (protein)
parent chain: MASKRALVILAKGAEEMETVIPVDVMRRAGIKVTVAGLAGKDPVQCSRDVVICPDASLEDAKKEGPYDVVVLPGGNLGAQNLSESAAVKEILKEQENRKGLIAAICAGPTALLAHEIGFGSKVTTHPLAKDKMMNGGHYTYSENRVEKDGLILTSRGPGTSFEFALAIVEALNGKEVAAQVKAPLVLKD
other: mitochondrial protein glycation [1]: increases | other: mitochondrial protein glycation [2]: no change
